Assay [1] has as its system VLDL isolated from human plasma. As to the kind of experiment: ApoC-III displacement study in VLDL isolated from human plasma. The format is binding. The protocol: VLDL or chylomicrons isolated from human plasma were incubated with an apoC-II mimetic peptide for 1 hour at 37° C. and washed 3 times with PBS using spin filter with 100 kDa cutoff membrane. […] ApoC-I, apoC-II, apoC-III, and apoE bands were identified by their corresponding size.

Assay [2] has as its target T1, LPL inhibited by apoC-III (Bos taurus, UniProt P11151).
T1 sequence (P11151 29-478): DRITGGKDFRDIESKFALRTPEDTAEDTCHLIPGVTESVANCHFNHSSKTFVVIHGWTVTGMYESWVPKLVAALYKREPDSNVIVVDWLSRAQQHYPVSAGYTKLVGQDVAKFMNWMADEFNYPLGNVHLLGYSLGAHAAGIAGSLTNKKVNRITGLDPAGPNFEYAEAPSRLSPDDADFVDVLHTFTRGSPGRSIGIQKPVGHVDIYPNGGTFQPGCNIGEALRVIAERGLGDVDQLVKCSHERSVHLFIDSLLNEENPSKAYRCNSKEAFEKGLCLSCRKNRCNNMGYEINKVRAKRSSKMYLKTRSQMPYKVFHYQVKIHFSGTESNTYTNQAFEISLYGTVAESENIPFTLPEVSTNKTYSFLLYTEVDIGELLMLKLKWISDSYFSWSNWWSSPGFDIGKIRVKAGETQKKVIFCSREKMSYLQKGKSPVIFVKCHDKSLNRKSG
As to the kind of experiment: LPL assay using human apoC-II deficient plasma as substrate with recombinant apoC-III. The format is biochemical. The note with it: 25 μM apoC-III, FIG. 50. The protocol: (§1) LPL activity assay: 10 μL of Intralipid, human plasma sample, or mouse plasma sample was added in each well using repeater pipette. 10 μL (or 15 μL in the wells with no LPL control) of PBS and 10 μL of 1% BSA was added in each well using repeater pipette. 10 μL of peptides were added to corresponding wells in vertical triplicates (lowest concentration is on a left, highest is on the right). The plate was spun down at 1000 RPM for 10 seconds to mix and to remove the solutions from the wall of each well. The plate was put on ice and 5 μL of LPL was added using repeater pipette. The plate was spun down again at 1000 RPM for 10 seconds. The plate was covered and put back on ice for an incubation of 30 min. The plate was then moved to 37° C. and incubated for 1 hour.
(§2) Free fatty acids (NEFA) assay: 45 μL of 5 nmoL standard and 0 nmoL control (0.2% BSA) were added to corresponding wells. 225 μL of reagent A was added in each well using the reagent tray and 12-channel pipette. The plate was incubated for 10 min before 75 μL of reagent B was added to each well using the reagent tray and 12-channel pipette. The plate was not covered due to the high volume. The absorbance at 550 nm and 660 nm was measured.
LPL assay was performed using Intralipid, high TG human plasma (1:50 dilution), or apoC-III transgenic mouse plasma (1:50 dilution). When Intralipid was used as a substrate, 25 or 50 μM recombinant ApoC-III was added as an inhibitor. When the high TG human plasma was used as a substrate, 25 or 50 μM recombinant ApoC-III was added as an inhibitor with or without pre-incubation at 37° C. for 1 hour. An apoC-II mimetic peptide was added at various concentrations.

For assay [3], the target named is T2, bovine LPL (Bos taurus, UniProt P11151).
T2 sequence (P11151 29-478): T1 sequence (P11151 29-478)
As to the kind of experiment: in vitro LPL assay using hypertriglyceridemia patient sera as substrate. The format is biochemical. The protocol: (§3) Preparation of LPL: frozen stock of 10 μL of 0.5 mg/mL bovine LPL was used and diluted 1:100 (10 μL+990 μL of PBS).
(§4) Preparation of free fatty acid (NEFA) assay: NEFA reagents were purchased from Wako Diagnostics, Wako Life Sciences, Inc. Reagent A was prepared by mixing Coloring Reagent A with Solvent A (225 μL per well). Reagent B was prepared by mixing Coloring Reagent B with Solvent B (75 μL per well). 5 nmoL oleic acid standard was prepared by diluting 20 μL of 1 mM oleic acid stock (WAKO NEFA standard solution) with 180 μL of 0.2% BSA.
as §1, §2

The target in assay [4] is T2, bovine LPL. As to the kind of experiment: in vitro LPL assay using apoC-II deficient patient sera as substrate. The format is biochemical. The protocol:
as §3
Preparation of 20% Intralipid: 2000 mg/dL TG Intralipid was used to prepare 3 mg/dL TG Intralipid by diluting 1.5 μL of the stock with 998.5 μL PBS, or by diluting the stock 1:10 first and then mixing 15 μL of the diluted stock with 985 μL PBS. When apoC-II deficient human serum was used as a substrate, a frozen 10 μL aliquot of 1711 mg/dL (TG) was diluted by adding 990 μL PBS (1:100 dilution).
as §4, §1, §2

In assay [5] the test system is apoC-II knockout mice. Description: plasma lipids of apoC-II knockout mice after peptide injection. The format is in vivo. The protocol: C57Bl/6 mice (wild-type), apoC-II knockout (apoC-II KO) mice, and apoC-III transgenic mice were used for in vivo study. The C57Bl/6 mice (wild-type) were purchased from Taconic Biosciences Inc. The apoC-II KO mice were created as described in Sakurai et al., J Pharmacol Exp Ther 356:341-353, 2016. The apoC-III transgenic mice were generated by overexpressing human apoC-III in C57Bl/6 mice. See Qu et al., J. Lipid Res. 48:1476-1487, 2007.
Mice were fasted overnight (approximately 12 hours) before the study and 6 hours during the study, the next day. The apoC-II mimetic peptides were synthetically produced and free of biological contamination (not available as FDA approved compounds/treatment). […] W.) administered either subcutaneous injection (S.Q. or S.C.), intraperitoneal injection (I.P.) or intravenous injection (I.V.) (in a sterile, pharmaceutical grade PBS solution at a volume ≤200 μL) as described in Sakurai et al., J Pharmacol Exp Ther 356:341-353, 2016.

Assay [6] has as its system chylomicrons isolated from human plasma. As to the kind of experiment: ApoC-III displacement study in chylomicrons isolated from human plasma. The format is binding. Here is the method:
VLDL or chylomicrons isolated from human plasma were incubated with an apoC-II mimetic peptide for 1 hour at 37° C. and washed 3 times with PBS using spin filter with 100 kDa cutoff membrane. Supernatants were brought to the original volume with PBS and loaded to 4-12% Bis-TRIS SDS PAGE gel. ApoC-I, apoC-II, apoC-III, and apoE bands were identified by their corresponding size.

Non-standard residues stand in square brackets, D forms with d. No end group written: not given here. Nle = CCCC[C@H](N)C(=O)O

Turning to “DYLKEVFEKLRDLYEKFTAAnLSTYTGIFTDQVLSVLKGEE (DYLKEVFEKLRDLYEKFTAA[Nle]STYTGIFTDQVLSVLKGEE) [Delta6]”, the “affinity for the VLDL compared with the apolipoproteins” value in assay [1] is given as “higher affinity”. In assay [1] (SDS PAGE), the “apoC-III displacement in VLDL” value was “capable of displacing apoC-III”. Further, in assay [2], the “effect on inhibition of LPL by apoC-III” value was “overcame the inhibitory effect of apoC-III and facilitated lipolysis”. The LPL activation result in assay [3] (patient sera TG about 1000 mg/dL to about 1700 mg/dL, FIGS. 15A-D) is listed as “activated LPL in vitro”. In assay [3] (sera of patients with high levels of apoC-III protein, FIG. 27), the LPL activity result was “increased the LPL activity”. The “LPL activation compared with full length apoC-II protein” value in assay [4] (10 pM to 10 μM, FIG. 51) is “activated LPL in vitro more efficiently than the full length apoC-II protein”. Further, the “promoting TG hydrolysis in the presence of LPL” value in assay [4] (FIG. 6) is on record as “capable of promoting TG hydrolysis in the presence of LPL”. The “efficiency compared with native apoC-II protein” value in assay [4] (at lower concentrations, FIG. 6) is given as “worked more efficiently than the native apoC-II protein”. Besides, the TG hydrolysis entry in assay [4] (concentrations from 100 pM to 10 nM, FIG. 14) is given as “exhibited the ability to promote TG hydrolysis in a dose dependent matter”. Moreover, the “plasma TG” value in assay [5] (0.25, 0.5, and 1 μmol/kg of body weight intraperitoneally, all doses, FIG. 23) was “rapid and marked reduction of plasma TG”. Further, in assay [5] (intraperitoneal injection), the “plasma TG” value was “rapid and marked reduction of plasma TG”; the total cholesterol level result is given as “decrease in the total cholesterol level”. Also, the “affinity for chylomicrons compared with the apolipoproteins” value in assay [6] is “higher affinity”.

(Values after patent US11827690B2, “ApoC-II mimetic peptides” (THE UNITED STATES OF AMERICA, as represented by the …, priority 2017, dated 2023).)
